Data set [1] relates to RBMEC and astrocyte barrier. Description: Trans-endothelial GLP-1 transport (Transwell artificial BBB). The data set is classed as in vitro ADME, rat. The protocol: The trans-endothelial GLP-1 transport was examined using a Transwell system that mimics the BBB in that RBMECs were co-cultured with astrocytes as illustrated in Figure 7A and previously described ([Gaillard et al., 2001]). Briefly, astrocytes (Thermo Fisher Scientific, Waltham, MA, United States) were seeded on the bottom and RBMECs were then seeded onto the top of the Transwell insert (6.5 mm diameter, 1 μm pore size, polyester membrane; Corning, Corning, NY, United States). Trans-endothelial electrical resistance was monitored using a volt-ohmmeter (EVOM; WPI, Sarasota, FL, United States) and EndOhm chamber (EndOhm; WPI). When the trans-endothelial electrical resistance reached its peak, the insert with double cell layers was washed twice at 37°C with PBS buffer. […] The amount of GLP-1-FAM or inulin-FITC transported to the lower chamber was determined by measuring FAM and FITC fluorescence in the lower chamber at 5, 10, and 30 min. Inulin-FITC transport was used to correct for paracellular transport and the amount of trans-endothelial transport of GLP-1-FAM was calculated using the formula:
Transcellular transport (%)=Fluorescence [FAM]/Reference [FAM]×100−Fluorescence [FITC]/Reference [FITC]×100
Reference refers to fluorescence in the lower chamber at the specified time point when the Transwell inserts had no cells seeded. To determine if this trans-endothelial transport is dose-dependent, 10, 100, and 1,000 pM GLP-1-FAM or inulin-FITC (with DDP-4 inhibitor) was loaded into the upper chamber, the amount of GLP-1-FAM or inulin-FITC in the lower chamber was determined at 10 min, and trans-endothelial transport of GLP-1 was calculated.
FIGURE 7 Trans-endothelial transport of GLP-1 is a GLP-1 receptor-mediated process. […] GLP-1-FAM or inulin-FITC transport to the lower chamber was determined by measuring FAM and FITC fluorescence in the lower chamber. […]

Data set [2] can be described thus: Circulating GLP-1-FAM / exendin-4-FAM uptake by the brain. It counts as in vivo. The settings on record: rat, systemic infusion 30 pmol/kg/min for 10 min; cerebellum, cortex, hippocampus, hypothalamus, brain stem; FAM fluorescence in lysates corrected for vascular space with Dextran-TRITC; n = 7 (GLP-1-FAM), n = 6 (exendin-4-FAM). The protocol:
Rats received a systemic infusion of either saline or exendin-(9-39) (GLP-1 receptor antagonist, 30 nmol/kg/min, Abcam, Cambridge, United Kingdom) via the jugular vein catheter for 20 min (Figure 1A). In the last 10 min, rats also received 30 pmol/kg/min of either GLP-1-FAM (AnaSpec, Fremont, CA, United States) or exendin-4-FAM (AnaSpec, Fremont, CA, United States) together with Dextran-TRITC (Sigma-Aldrich, St. Louis, MO, United States) (70 kD, vascular space marker, 30 pmol/kg/min). […] After collecting plasma samples, rats were sacrificed via anesthetic overdose and various brain regions (cerebellum, cortex, hippocampus, hypothalamus, and brain stem) collected, homogenized and lysed in lysis buffer. Fluorescence from TRITC and FAM were measured in both plasma and brain lysates. Protein concentrations were determined in the brain lysates. Brain uptake of GLP-1-FAM and exendin-4-FAM were calculated using the following formula:
Tissue fluorescence [FAM]/Tissue weight (μg)−TissueFluorescence [TRITC]/Weight(μg)/PlasmaFluorescence [TRITC]/200(μL)×Plasma Fluorescence [FAM]/200μL
FIGURE 1 GLP-1 and GLP-1 analog exendin-4 enter various brain regions via GLP-1 receptor-mediated process. (A) Protocol. […]

Data set [3] relates to Rat brain microvascular endothelial cells (RBMECs). Description: Endothelial cell uptake of GLP-1-FAM. It counts as cell-based. Conditions: confocal fluorescence. The protocol:
Rat brain microvascular endothelial cells (RBMECs; Cell Applications, San Diego, CA, United States) were cultured on a cover slip in rat brain endothelial cell growth medium. After reaching confluency, cells were pre-treated with vehicle (PSS buffer), exendin 9-39 (10 nM) or H89 (Sigma-Aldrich, St. Louis, MO, United States) (10 μM) for 30 min or forskolin (Sigma-Aldrich, St. Louis, MO, United States) (10 μM) for 5 min. Cells were then incubated with GLP-1-FAM at either 10, 100 or 1,000 pM for 3 min at 37°C. DAPI was used to stain the nucleus. After fixation and washing three times with cold TBST (5 min each time), cell images were captured using confocal microscope and fluorescence intensity measured using ImageJ software^1. FAM signal from surface binding of FAM was examined by incubating cells with GLP-1-FAM at 4 or 37°C for 3 min, or free FAM (10, 100, and 1,000 pM) at 37°C for 3 min.
FIGURE 5 GLP-1 uptake by RBMECs is GLP-1 receptor and PKA dependent. RBMECs were pretreated with vehicle (PSS buffer, A,E,I), Exendin 9-39 (10 nM, B,F,J) or H89 (10 μM, C,G,K) for 30 min. Cells were then incubated with GLP-1-FAM at 10, 100 pM or 1 nM for 3 min. DAPI was used to stain the nucleus. Images were captured using confocal microscope. Fluorescence density was analyzed using ImageJ. (D,H,L) Quantitative analysis (n = 3, *p < 0.01, vs. vehicle, Student’s t test). GLP-1R – GLP-1 receptor.
FIGURE 6 cAMP agonist increases GLP-1 uptake by RBMECs. (A) RBMECs were incubated with GLP-1-FAM at 10 pM for 3 min with or without 10 μM forskolin. DAPI was used to stain the nucleus. Images was captured using confocal microscope. Fluorescence density was analyzed using ImageJ. (B) quantitative analysis of the images (n = 6, *p < 0.05, vs. vehicle, Student’s t test).

Another data set relates to DPP4. Conditions: no reference given; cited from earlier work. The source says: GLP-1 receptors are expressed in multiple brain areas in rodents, primates, and humans and they are involved in learning, neuroprotection and regulation of appetite and satiety ([Wei and Mojsov, 1995]; [During et al., 2003]; [Richards et al., 2014]). Global knockout of the GLP-1 receptor in mice impairs synaptic plasticity and memory formation ([Abbas et al., 2009]). […] Indeed, pre-treatment of animals w ...

The conditions of data set [4]: in vivo; cited from earlier work. From the text: Peptides cross the BBB via transcellular vesicular pathways that may be either constitutive or regulated. […] This is similar to leptin ([Banks et al., 1996]) and insulin ([Gray et al., 2014]; [Meijer et al., 2016]), two appetite regulating hormones secreted peripherally that enter into the brain. || The central actions of GLP-1 and its analogs have been well recognized. GLP-1 analogs have been repeatedly shown to cross the BBB, stimulate brain GLP-1 receptors, and modulate mitochondrial function, protein aggregation, neuroinflammation, synaptic plasticity, learning and memory in experimental models of Parkinson's and Alzheimer's disease ([Athauda and Foltynie, 2016]). Our observation that peripherally administrated GLP-1 and exendin-4 rapidly enter various brain regions is consistent with prior findings that peripherally injected GLP-1 analogs can easily enter the brain ([[…] and Akers ...

With GLP-1-FAM: FAM-labeled GLP-1 (AnaSpec), the “concentration dependence of trans-endothelial transport” value in data set [1] (Transwell, 10, 100 and 1000 pM, 10 min, with DPP4 inhibitor, n = 6, p = 0.37) is listed as “does not appear to be concentration dependent”. Besides, in data set [1] (Transwell, RBMECs co-cultured with astrocytes, 100 pM in upper chamber with DPP4 inhibitor, lower chamber fluorescence at 5, 10 and 30 min, corrected for paracellular transport with inulin-FITC, n = 7), the “transport across the RBMEC and astrocyte barrier, time course” value is given as “crossed the barrier in a time-dependent fashion”. Also, the “FAM-labeled peptide detected in brain regions (brain uptake)” value in data set [2] is reported as “detected in various brain regions”. The RBMEC uptake result in data set [3] (10, 100 and 1,000 pM, 3 min at 37°C, ImageJ) is listed as “actively took up”. The “RBMEC uptake at 4°C” value in data set [3] (3 min at 4°C) is recorded as “did not take up”.
A word on the half-life: it is the time in which the quantity being followed falls by half. Turning to exendin-4, in the data set on DPP4, the half-life was 1.5 h and the “stability to DPP4” value is listed as “DPP4 resistant”. Moreover, the “time to detection in the brain after intravenous injection” value in data set [4] is at most 5 min.

Source of the values: paper PMC7274078, “Brain Endothelial Cells Regulate Glucagon-Like Peptide 1 Entry Into the Brain via a Receptor-Mediated Process” (Frontiers in Physiology, 2020).
